Results reported in patent CN111138528A (INST MILITARY MEDICINE ACADEMY MILITARY SCIENCES PLA, dated 2020).

Molecular target: GPdM (Ebola virus (EBOV), UniProt Q05320 33-632)
Experiment: ELISA, truncated GP coated, 5A8 titrated (method of Example 2)

B1: 单克隆抗体5A8 (antibody, V domains shown)
VH: EVQLLESGGGLVKPGGSLRLSCAASGFTFSDYYMNWIRQAPGKGLEWVSYISSSGKTIYYADSVKGRFTISRDNAKKSLYLQMNSLRAEDTAVYYCARDREIVISTTILLGSDHYAMDVWGQGTTVTVSS
VL: DIQMTQSPFTLSASVGDRVTITCRASQSINSYLNWYQQKPGKAPKLLIYSASSLQSGVPSRFSGSGSGTDFTLTISSLQPEDFAIYYCQQTYRTPYTFGQGTKVEIKT
For B1, the EC50 was 8.2 ng/mL.
